# Reference: paper PMC12399007
# Legend:
# [1] = target: F-actin (rabbit skeletal muscle actin, polymerized) (rabbit) (UniProt P68135); experiment: co-sedimentation; high-speed centrifugation (HSC, 1 h, 40,000 rpm, 20 °C); 3.0 µM F-actin pre-incubated with 0.3 µM fascin for 20 min, titrated with Tpm2 isoforms 0-3.0 µM; 5 mM Tris, 100 mM NaCl, 2 mM MgCl2, 1 mM DTT, pH 7.5; Hill fit, apparent Kapp; fascin band in the pellets also quantified
# [2] = target: F-actin (rabbit skeletal muscle actin, polymerized) (rabbit) (UniProt P68135); experiment: co-sedimentation; high-speed centrifugation (HSC); 3.0 µM F-actin, alone or pre-incubated 15 min with 2.0 µM Tpm2 isoform, incubated with fascin 0-1.1 µM for 1 h at RT; 5 mM Tris-HCl, 100 mM NaCl, 2 mM MgCl2, 1 mM DTT, pH 7.5; Hill fit, apparent Kapp
# [3] = target: F-actin saturated with Tpm2.1 (rabbit | human) (UniProt P68135); experiment: as above
substance,measurement,setting,value
"Tpm2.4, recombinant N-terminally acetylated human tropomyosin isoform encoded by TPM2 (natural protein)",percent reduction of fascin bound to F-actin,[1],30%
recombinant mouse fascin-1 with GPLGS N-terminal extension (GST tag cleaved) (natural protein),Ka,[2],1.15e+07 M⁻¹
same,Ka,[3],8e+06 M⁻¹
